The values that follow come from paper PMC6358717 (Proceedings of the National Academy of Sciences of the …, 2018).

Several values for one entry are separate records, joined by “and”; a condition that tells them apart may be missing. Equal values may be shown once.

For data set [1], the target named is human GPIHBP1 coated on ELISA wells (human) (UniProt Q8IV16). In words: ELISA.
The data set “crystal structure” concerns the molecule itself. As to the kind of experiment: crystal structure.

human GPIHBP1 coated on ELISA wells (human), sequence (Q8IV16 21-151): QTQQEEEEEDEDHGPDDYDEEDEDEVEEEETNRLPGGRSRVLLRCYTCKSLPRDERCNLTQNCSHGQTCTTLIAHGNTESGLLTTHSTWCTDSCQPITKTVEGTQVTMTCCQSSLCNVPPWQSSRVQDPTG

Regarding “FLAG-tagged human LPL-M404R (from UniProt P06858 28-475) (enzyme)”, the percent reduction of binding against LPL-wt in data set [1] was 79% and 85%.

B1: human lipoprotein lipase harboring an R324A mutation (enzyme, UniProt P06858 28-475, looked up)
chain: ADQRRDFIDIESKFALRTPEDTAEDTCHLIPGVAESVATCHFNHSSKTFMVIHGWTVTGMYESWVPKLVAALYKREPDSNVIVVDWLSRAQEHYPVSAGYTKLVGQDVARFINWMEEEFNYPLDNVHLLGYSLGAHAAGIAGSLTNKKVNRITGLDPAGPNFEYAEAPSRLSPDDADFVDVLHTFTRGSPGRSIGIQKPVGHVDIYPNGGTFQPGCNIGEAIRVIAERGLGDVDQLVKCSHERSIHLFIDSLLNEENPSKAYRCSSKEAFEKGLCLSCRKNRCNNLGYEINKVRAKASSKMYLKTRSQMPYKVFHYQVKIHFSGTESETHTNQAFEISLYGTVAESENIPFTLPEVSTNKTYSFLIYTEVDIGELLMLKLKWKSDSYFSWSDWWSSPGFAIQKIRVKAGETQKKVIFCSREKVSHLQKGKAPAVFVKCHDKSLNKKSG
modifications: N-linked glycans at N70 and N386
Consider B1, for which the binding result in “crystal structure” is given as “binds”.
